This is an account of results in patent US20110300113A1, “Death Receptor CD95 Controls Neurogenesis of Adult Neural Stem Cells in Vivo and in Vitro” (DEUTSCHES KREBSFORSCHUNGSZENTRUM, priority 2006, published 2011).

The test system of assay [1] is GSK3β and AKT phosphorylation. The assay can be described thus: Western blot of GSK3β and AKT phosphorylation in NSCs. Type of assay: cell-based, mouse. Conditions: inhibitor pretreatment. Here is the method:
Western Blots. Phosphorylated GSK3β (P-Ser9-GSK3β, 1:1000), phosphorylated AKT (P-Ser473-KT, 1:1000), total AKT (T-AKT, 1:1000), Src family kinases (Src, 1:1000), cleaved caspase 3 (1:250), total β-Catenin (1:1000) and phosphorylated src (Tyr416) were purchased from Cell Signaling/New England Biolabs. pp60(c-Src) antibody was purchased from Upstate. Antibody against total GSK3β (T-GSK3β, 1:1000), were purchased from Santa Cruz. The PI3K inhibitor […] (25 μM) and the Src family kinase inhibitor PP2 (20 μM) were purchased from Calbiochem. Cells were preincubated with inhibitors 30 minutes (LY 294002) and 1 hour (PP2) prior to treatment. Cells were lysed for further biochemical analysis. Protein extraction and immunoblotting was performed as previously described.
In general terms: Immunoblotting shows a protein as a band on a membrane.

The target of assay [2] is CD95 (APO-1 or Fas), mouse, endogenous in neural stem cells / brain tissue (mouse) (UniProt P25446). Nature of the assay: cell-based or functional assay.
Sequence of CD95 (APO-1 or Fas), mouse, endogenous in neural stem cells / brain tissue (mouse) (P25446 22-327): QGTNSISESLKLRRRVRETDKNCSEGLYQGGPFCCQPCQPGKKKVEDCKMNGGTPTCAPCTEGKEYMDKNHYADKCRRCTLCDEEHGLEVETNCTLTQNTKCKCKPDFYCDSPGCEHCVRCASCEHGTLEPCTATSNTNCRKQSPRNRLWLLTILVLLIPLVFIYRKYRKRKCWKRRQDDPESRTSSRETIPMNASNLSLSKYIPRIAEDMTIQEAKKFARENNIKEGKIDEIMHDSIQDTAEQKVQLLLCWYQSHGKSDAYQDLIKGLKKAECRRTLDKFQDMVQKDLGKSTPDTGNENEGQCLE
In assay [3] the test system is mouse adult SVZ NSCs. Nature of the assay: Gene expression by quantitative real-time PCR in adult SVZ NSCs. The class given is cell-based. The note with it: 48 h after stimulation. Here is the method:
Real-time Quantitative PCR. 24 h cells after plating cells were stimulated with 1 activation unit of CD95L-T4. After 48 h RNA was isolated using the RNeasy Mini Kit (Qiagen). Real-time quantitative PCR was carried out using Sybr Green core kits (Eurogentec) and Uracil-N-glycosylase (Eurogentec). For determining CD95L induction after global ischemia, the hippocampi were dissected out and stored in RNAlater reagent (Ambion). RNA was extracted using the RNeasy Mini Kit (Qiagen). Real-time quantitative PCR was carried out using Sybr Green core kits (Eurogentec) and Uracil-N-glycosylase (Eurogentec). Primers used for quantitative real-time PCR were designed using Primer 3 software (http://fokker.wi.mit.edu/cgi-bin/primer3/primer3_www.cgi).

For assay [4], the system named is neural progenitor cells. Nature of the assay: GFAP expression (glial differentiation) in neural progenitor cells. Conditions: data not shown. Type of assay: cell-based, mouse. As to the method:
For staining of intracellular markers, cells were harvested, fixed with 4% PFA for 10 min on ice, washed and permeabilized using 0.1% Saponin (Sigma-Aldrich) in PBS with 10% FCS (SAP). Cells were incubated with primary antibody or isotype for 30 min on ice. Cells were washed three time with SAP and incubated with secondary antibody for 30 min on ice. Cells were washed again three times with SAP and analysed. Antibodies used were: anti β-III-tubulin (Chemicon) 1:100, anti GFAP (Chemicon) 1:100 and isotype mouse IgG1 (Sigma) 1:20. Secondary antibody was goat anti-mouse PE 1:100 (Dianova). To quantify DNA fragmentation, cells detached with trypsin were centrifuged, washed and fixed with 70% ethanol at −20° C. for 1 h. Fixed cells were resuspended in a hypotonic lysis buffer (0.1% sodium citrate and 0.1% Triton X-100) containing […] of propidium iodide, incubated at 4° C. overnight. After final washings, all samples were analysed using a FACS-Calibur (Becton Dickinson) and CellQuest Software (Becton Dickinson).
Mouse adult neural stem cell culture. NSCs were isolated as previously described^30. Briefly, 6 week old female C57BL6 mice were sacrificied and tissue from hippocampus, SVZ and spinal cord was dissected out. […]

Assay [5] has as its system SVZ NSCs. The assay can be described thus: β-III-tubulin expression in adult SVZ neural progenitor cells (flow cytometry). Type of assay: cell-based, mouse. The note with it: exogenous BDNF alone; data not shown. The source says: Lentiviral infections. SVZ NSCs were infected with the lentiviral vector pEIGW and pEIGW-GSK3βS9A at a multiplicity of infection (MOI) of 5. The plasmids were constructed by replacing the eGFP sequence between the EF1α promotor and the WPRE element in pWPTS-eGFP with the IRES-eGFP cassette form pIRES2-eGFP (Clontech, Germany). The recombinant lentiviral vector pEIGW-GSK3βS9A was constructed using pcDNA3 HA-GSK3βS9A. This vector encodes a constitutively active GSK3β mutant containing a serine-to-alanine substitution at residue 9 (GSK3βS9A). Expression of all transgenes was confirmed in infected cells by FACS analysis of GFP expression. The percentage of infected cells was 70-90%.
siRNA. […] 48 h later pp60 src knockdown was assessed by Western Blot. At the same time, cells were stimulated with CD95L-T4 and analysed after 48 h for β-III-tubulin positive cells.
For staining of intracellular markers, cells were harvested, fixed with 4% PFA for 10 min on ice, washed and permeabilized using 0.1% Saponin (Sigma-Aldrich) in PBS with 10% FCS (SAP). […] Cells were washed again three times with SAP and analysed. […] To quantify DNA fragmentation, cells detached with trypsin were centrifuged, washed and fixed with 70% ethanol at −20° C. for 1 h. […] After final washings, all samples were analysed using a FACS-Calibur (Becton Dickinson) and CellQuest Software (Becton Dickinson). […]
Background: Flow cytometry measures light scatter and fluorescence of single cells or particles in a stream.

On to `CC(C)(C)n1nc(-c2ccc(Cl)cc2)c2c(N)ncnc21` [PP2], for which, in assay [1] (CD95-induced), the “phosphorylation of GSK3β” value was “inhibited phosphorylation”. The “phosphorylation of AKT” value in assay [1] (induced by CD95L) is “inhibited phosphorylation”.

In assay [2], “mus musculus CD95-Ligand-T4 (mmCD95L-T4) (from UniProt P41047 140-279; P10104 458-484)” returned a PI3K activity at 1 min after treatment with 1 U of CD95L-T4 (relative to untreated = 1) (fold of untreated) of 1.38; a PI3K activity at 5 min after treatment with 1 U of CD95L-T4 (relative to untreated = 1) (fold of untreated) of 1.53; a β-III-tubulin positive cells, NSCs with control siRNA, after CD95L-T4 of 18.1%; a β-III-tubulin positive cells, NSCs with transfection reagent only, after CD95L-T4 of 17.1%.

B1: CNTF: inducer of astrocytic differentiation (protein, UniProt P26441 1-200, looked up)
Ciliary neurotrophic factor: MAFTEHSPLTPHRRDLCSRSIWLARKIRSDLTALTESYVKHQGLNKNINLDSADGMPVASTDQWSELTEAERLQENLQAYRTFHVLLARLLEDQQVHFTPTEGDFHQAIHTLLLQVAAFAYQIEELMILLEYKIPRNEADGMPINVGDGGLFEKKLWGLKVLQELSQWTVRSIHDLRFISSHQTGIPARGSHYIANNKKM
Turning to B1, in assay [3], the BDNF expression result is “induced”, the “Doublecortin like kinase1 (DCLK) expression” value is given as “no effect on DCLK expression”, the “Jagged1 mRNA levels” value is on record as “decreased” and the “Neurogenin (Ngn1) expression” value is given as “almost complete loss of Ngn1 mRNA”. Besides, in assay [4], the GFAP expression entry is “enhanced expression of GFAP”.

B2: BDNF: brain-derived nerve factor, a neurotrophin (protein, UniProt P23560 19-247, looked up)
Neurotrophic factor BDNF …: APMKEANIRGQGGLAYPGVRTHGTLESVNGPKAGSRGLTSLADTFEHVIEELLDEDQKVRPNEENNKDADLYTSRVMLSSQVPLEPPLLFLLEEYKNYLDAANMSMRVRRHSDPARRGELSVCDSISEWVTAADKKTAVDMSGGTVTVLEKVPVSKGQLKQYFYETKCNPMGYTKEGCRGIDKRHWNSQCRTTQSYVRALTMDSKKRIGWRFIRIDTSCVCTLTIKRGR
Turning to B2, the β-III-tubulin expression entry in assay [5] was “did not increase β-III-tubulin expression”.
